Reference: patent EP4480965A1, “TRANSFERRIN RECEPTOR-BINDING MOLECULES, CONJUGATES THEREOF AND THEIR USES TO PREVENT OR TREAT CNS DISEASES” (Vect-Horus, priority 2023, dated 2024)
One block for each binder: values may come before it.

Key:
[1] = biological target: murine TfR expressed by murine neuroblastoma Neuro-2a cells (mouse) (UniProt Q62351); test: cell-based or functional assay
[2] = biological target: mouse transferrin receptor fused to EGFP, expressed on CHO cells (mouse) (UniProt Q62351); test: cell-based assay on mTfR, apparent Kd
mouse transferrin receptor fused to EGFP, expressed on CHO cells (mouse), sequence (Q62351 whole entry, the tested form may be a part): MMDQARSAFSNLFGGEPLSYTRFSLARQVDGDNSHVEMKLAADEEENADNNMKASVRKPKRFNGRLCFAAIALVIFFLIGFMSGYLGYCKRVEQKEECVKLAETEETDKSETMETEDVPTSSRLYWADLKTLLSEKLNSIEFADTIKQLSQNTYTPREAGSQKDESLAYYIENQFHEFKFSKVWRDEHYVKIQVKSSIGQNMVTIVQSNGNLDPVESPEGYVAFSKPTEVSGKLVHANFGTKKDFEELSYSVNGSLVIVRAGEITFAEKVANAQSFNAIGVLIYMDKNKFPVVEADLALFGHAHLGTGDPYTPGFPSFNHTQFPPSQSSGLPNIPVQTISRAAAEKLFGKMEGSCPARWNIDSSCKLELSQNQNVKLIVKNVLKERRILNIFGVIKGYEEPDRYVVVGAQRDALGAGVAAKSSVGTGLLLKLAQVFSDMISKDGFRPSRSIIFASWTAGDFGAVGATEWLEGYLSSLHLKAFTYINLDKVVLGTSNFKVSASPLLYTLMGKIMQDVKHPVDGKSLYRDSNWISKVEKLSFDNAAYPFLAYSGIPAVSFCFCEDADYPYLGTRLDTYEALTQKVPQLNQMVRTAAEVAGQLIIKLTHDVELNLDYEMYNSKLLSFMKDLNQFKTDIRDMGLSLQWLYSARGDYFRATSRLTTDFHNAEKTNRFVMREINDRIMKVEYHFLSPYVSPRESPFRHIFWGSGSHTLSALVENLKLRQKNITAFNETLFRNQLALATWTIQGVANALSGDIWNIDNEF

murine TfR expressed by murine neuroblastoma Neuro-2a cells (mouse), sequence (Q62351 whole entry, the tested form may be a part): as above

- mean IC50 of mSOD1 mRNA downregulation, free uptake on Neuro-2a cells [1]: 8.7 nM
B1: C5-hFc-siSOD1m-5'VP (protein, part only; not given: Fc knob and hole arms, siRNA, part only)
chain, part: EVQLVESGGGVVQPGGSLKLSCVASGTDFSINFIRWYRQAPGKQREFVAGFTATGNTNYADSMKGRFTISRDNTKNAVYLQIDSLKPEDTAVYYCYMLDKWGQGTQVTVSSAAAEQKLISEEDLNGAAHHHHHHGS

- Kd [2]: 2.8 nM
B2: B8h1-NT(8-13) (protein, part only; not given: nothing essential, part only)
chain, part: EVQLVESGGGVVQPGGSLRLSCAASGEIFSINFMRWYRQAPGKGLEWVAGFTRDGSTNYPDSVKGRFTISRDNAKNTVYLQMNSLRPEDTAVYYCYMLDTWGQGTQVTVSSHHHHHHGGGGSGGGGS
